According to patent CN115536747A (YIKESITE BEIJING PHARMACEUTICAL TECH DEVELOPMENT CO LTD, dated 2022):

T1: 人TROP2 on cells (表达TROP2的CHO细胞系; MCF, MDA-MB-231, MDA-MB-468, HCC1395 breast cancer cells) (human, UniProt P09758 27-323)
T1 construct: whole, on cells; also called 细胞膜表面的TROP2抗原; 人细胞表面抗原TROP2
T1 sequence (looked up): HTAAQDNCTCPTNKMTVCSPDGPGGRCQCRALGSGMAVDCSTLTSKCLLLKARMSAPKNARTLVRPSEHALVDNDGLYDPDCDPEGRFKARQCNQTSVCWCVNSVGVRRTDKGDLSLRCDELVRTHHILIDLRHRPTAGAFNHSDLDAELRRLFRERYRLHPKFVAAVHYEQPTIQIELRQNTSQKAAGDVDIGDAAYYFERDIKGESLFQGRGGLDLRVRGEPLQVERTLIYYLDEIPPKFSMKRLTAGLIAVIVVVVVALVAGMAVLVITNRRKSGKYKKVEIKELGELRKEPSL

T2: TROP2抗原 (TROP2-Fc融合蛋白, Acrobiosystems, 目录号TR2-H5253) (human, UniProt P09758 27-274)
T2 construct: not shown: human antibody Fc
T2 sequence (looked up): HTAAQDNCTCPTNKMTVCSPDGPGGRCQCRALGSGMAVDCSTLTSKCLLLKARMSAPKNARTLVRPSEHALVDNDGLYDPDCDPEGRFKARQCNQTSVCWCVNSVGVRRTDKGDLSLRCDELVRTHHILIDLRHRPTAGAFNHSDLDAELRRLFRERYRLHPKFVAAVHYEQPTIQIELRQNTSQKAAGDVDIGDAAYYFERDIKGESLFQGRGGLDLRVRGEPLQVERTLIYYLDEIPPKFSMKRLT

T3: Human TROP-2 (人TROP2蛋白, SPR antigen) (human, UniProt P09758 27-274, limits assumed)
T3 construct: The construct used in SPR is not described
T3 sequence (looked up): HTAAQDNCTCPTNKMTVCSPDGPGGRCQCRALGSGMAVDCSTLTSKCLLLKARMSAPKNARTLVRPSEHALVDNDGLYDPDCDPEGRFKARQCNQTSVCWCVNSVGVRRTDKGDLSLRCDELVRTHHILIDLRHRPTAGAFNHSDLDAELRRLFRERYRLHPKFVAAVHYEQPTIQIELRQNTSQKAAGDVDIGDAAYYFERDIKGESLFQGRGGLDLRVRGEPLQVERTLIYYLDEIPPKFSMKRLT

T4: Rhesus TROP-2 (猴TROP2蛋白, SPR antigen) (Rhesus (the 2nd table); 食蟹猴 (text paragraph 139), UniProt A0A5F8AGB8 27-274)
T4 construct: also called 食蟹猴TROP2
T4 sequence: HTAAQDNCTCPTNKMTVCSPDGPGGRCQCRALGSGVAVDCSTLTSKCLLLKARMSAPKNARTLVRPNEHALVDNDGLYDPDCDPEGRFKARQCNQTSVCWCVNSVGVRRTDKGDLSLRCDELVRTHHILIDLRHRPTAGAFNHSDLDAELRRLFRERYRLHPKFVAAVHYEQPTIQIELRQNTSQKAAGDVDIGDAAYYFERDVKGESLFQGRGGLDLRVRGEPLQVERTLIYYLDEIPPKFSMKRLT


Assays:
[1] = molecular target: T1, 人TROP2 on cells (表达TROP2的CHO细胞系; MCF, …); assay: flow cytometry on HCC1395 cells, PE anti-human IgG Fc
[2] = molecular target: T1, 人TROP2 on cells (表达TROP2的CHO细胞系; MCF, …); assay: flow cytometry on MCF cells, PE anti-human IgG Fc
[3] = molecular target: T5, 人T细胞的CD3 (CD3+ T细胞) (human, UniProt P07766 23-207; P04234 22-171; P09693 23-182; P20963 22-164); assay: flow cytometry on CD3+ T cells, PE anti-human IgG Fc
T5 construct: whole, on cells; also called T细胞表面抗原CD3

[4] = molecular target: T1, 人TROP2 on cells (表达TROP2的CHO细胞系; MCF, …); assay: flow cytometry on MDA-MB-468 cells, PE anti-human IgG Fc
[5] = molecular target: T1, 人TROP2 on cells (表达TROP2的CHO细胞系; MCF, …); assay: flow cytometry on MDA-MB-231 cells, PE anti-human IgG Fc
[6] = molecular target: T2, TROP2抗原 (TROP2-Fc融合蛋白, Acrobiosystems, …); assay: monoclonal phage ELISA, TROP2 antigen coated at 1 μg/ml, positive = more than 3x negative control
[7] = molecular target: T3, Human TROP-2 (人TROP2蛋白, SPR antigen); assay: SPR, IgG
[8] = molecular target: T4, Rhesus TROP-2 (猴TROP2蛋白, SPR antigen); assay: SPR, IgG
[9] = molecular target: T3, Human TROP-2 (人TROP2蛋白, SPR antigen); assay: ELISA (内在亲和力)
[10] = molecular target: T3, Human TROP-2 (人TROP2蛋白, SPR antigen); assay: SPR, IgG; reference 1F7
[11] = molecular target: T4, Rhesus TROP-2 (猴TROP2蛋白, SPR antigen); assay: SPR, IgG; reference 1F7

T5 sequence (P07766 23-207, chain 1 of 4): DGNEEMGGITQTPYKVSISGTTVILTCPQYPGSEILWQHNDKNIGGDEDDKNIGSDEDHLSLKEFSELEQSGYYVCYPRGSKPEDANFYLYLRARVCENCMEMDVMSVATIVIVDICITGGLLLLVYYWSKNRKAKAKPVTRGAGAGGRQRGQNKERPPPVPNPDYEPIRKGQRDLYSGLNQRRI
T5 sequence (P04234 22-171, chain 2 of 4): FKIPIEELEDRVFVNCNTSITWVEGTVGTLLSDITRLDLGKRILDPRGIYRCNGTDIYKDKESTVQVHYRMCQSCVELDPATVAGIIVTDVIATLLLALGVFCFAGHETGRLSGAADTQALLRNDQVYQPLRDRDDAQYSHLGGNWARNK
T5 sequence (P09693 23-182, chain 3 of 4): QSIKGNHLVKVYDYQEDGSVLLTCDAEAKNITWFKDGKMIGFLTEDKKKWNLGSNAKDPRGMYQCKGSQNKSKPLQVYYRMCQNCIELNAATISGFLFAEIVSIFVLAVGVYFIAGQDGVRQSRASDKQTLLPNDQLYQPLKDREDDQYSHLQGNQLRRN
T5 sequence (P20963 22-164, chain 4 of 4): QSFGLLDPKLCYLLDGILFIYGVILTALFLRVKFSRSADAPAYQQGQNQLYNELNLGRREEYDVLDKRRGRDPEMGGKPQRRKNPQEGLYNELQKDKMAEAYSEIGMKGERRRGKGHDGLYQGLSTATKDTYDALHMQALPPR

Row | Binder | EC50 [1] | EC50 [2] | EC50 [3] | EC50 [4] | EC50 [5] | binding result [6] | Kd [7] | koff [7] | kon [7] | Kd [8] | koff [8] | kon [8] | Kd [9] | fold improvement of binding against 1F7 [10] | fold improvement of affinity against 1F7 [11]
1 | 双特异性抗体F7AK3 (TROP2×CD3, cFIST形式) (bispecific antibody, human IgG4 S228P, kappa, also called F7AK3双抗) heavy: not shown light: DIQLTQSPSSVSASVGDRVTITCRASQGISSWLAWYRQKPGKAPKLLIYRARSLQSGVPSRFSGSGSGTDFTLTISSLQPEDFATYYCQQANSFPVTFGQGTRLEIKRTVAAPSVFIFPPSDEQLKSGTASVVCLLNNFYPREAKVQWKVDNALQSGNSQESVTEQDSKDSTYSLSSTLTLSKADYEKHKVYACEVTHQGLSSPVTKSFNRGEC | 0.0532 µg/mL | 0.205 µg/mL | 0.568 µg/mL | 0.0668 µg/mL | 0.0891 µg/mL |  |  |  |  |  |  |  |  |  | 
2 | 1F7单链抗体 (scFv shown on M13 phage) (scFv, The phage coat protein fusion is not described; also called hit) scFv: QVQLVQSGAEVKKPGASVKVSCKASGYTFTSYGINWVRQATGRGLEWMGWMNPNSGNTGYAQKFQGRVTITADESTSTAYMELSSLRSEDTAVYYCARPNTGGDGAFDIWGQGTMVTVSSGGSSRSSSSGGGGSGGGGDIQLTQSPSSVSASVGDRVTITCRASQGISSWLAWYRQKPGKAPKLLIYAASSLQSGVPSRFSGSGSGTDFTLTISSLQPEDFATYYCQQANSFPITFGQGTRLEIK |  |  |  |  |  | binds |  |  |  |  |  |  |  |  | 
3 | 1F7亲本抗体 (IgG形式) (antibody, V domains shown) VH: QVQLVQSGAEVKKPGASVKVSCKASGYTFTSYGINWVRQATGRGLEWMGWMNPNSGNTGYAQKFQGRVTITADESTSTAYMELSSLRSEDTAVYYCARPNTGGDGAFDIWGQGTMVTVSS VL: DIQLTQSPSSVSASVGDRVTITCRASQGISSWLAWYRQKPGKAPKLLIYAASSLQSGVPSRFSGSGSGTDFTLTISSLQPEDFATYYCQQANSFPITFGQGTRLEIKR |  |  |  |  |  |  | 7.57 nM | 0.000892 s⁻¹ | 118000 M⁻¹ s⁻¹ | 40.7 nM | 0.000942 s⁻¹ | 23100 M⁻¹ s⁻¹ | ~7.5 nM |  | 
4 | 突变体F7A (IgG形式) (antibody, V domains shown) VH: QVQLVQSGAEVKKPGASVKVSCKASGYTFTNYGINWVRQATGRGLEWMGWMNPRSGNTGYAQKFQGRVTITADESTSTAYMELSSLRSEDTAVYYCARPNTGGDGAFDIWGQGTMVTVSS VL: DIQLTQSPSSVSASVGDRVTITCRASQGISSWLAWYRQKPGKAPKLLIYRARSLQSGVPSRFSGSGSGTDFTLTISSLQPEDFATYYCQQANSFPVTFGQGTRLEIKR |  |  |  |  |  |  | 4.35 nM | 0.000834 s⁻¹ | 192000 M⁻¹ s⁻¹ | 12.8 nM | 0.00165 s⁻¹ | 128000 M⁻¹ s⁻¹ |  | 1.74 倍 | 3.18 倍
